This note sets out measurements from patent publication US20250340654A1 (INTERVET, published 2025).

Experiment [1] addresses T1, Canine IL-31RA ECD-10His (canine, biotin-labeled in the Octet assay (site not stated)).
T1 construct: The ELISA and Octet protocols say only 'IL-31RA' or 'canine IL-31RA'; also called cIL-31RA; canine IL-31 receptor alpha extracellular domain, HIS-tagged
T1 chain: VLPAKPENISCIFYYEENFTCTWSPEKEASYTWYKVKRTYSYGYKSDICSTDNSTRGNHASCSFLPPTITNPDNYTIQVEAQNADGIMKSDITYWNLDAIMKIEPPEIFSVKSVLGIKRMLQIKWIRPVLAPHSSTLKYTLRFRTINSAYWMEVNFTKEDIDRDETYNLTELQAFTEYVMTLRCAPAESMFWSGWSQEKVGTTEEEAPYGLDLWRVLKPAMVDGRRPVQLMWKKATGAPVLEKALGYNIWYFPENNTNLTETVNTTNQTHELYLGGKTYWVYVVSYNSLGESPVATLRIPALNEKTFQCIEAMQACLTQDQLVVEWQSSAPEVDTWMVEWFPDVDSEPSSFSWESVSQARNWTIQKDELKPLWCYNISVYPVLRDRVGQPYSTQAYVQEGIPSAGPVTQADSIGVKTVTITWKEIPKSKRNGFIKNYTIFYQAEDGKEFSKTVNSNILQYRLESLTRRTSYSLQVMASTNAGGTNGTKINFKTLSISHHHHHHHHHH
In words: ELISA on coated canine IL-31RA, anti-canine IgG Fc-HRP (Example 11), the unit is that of the x axis 'Ab Log Conc. (ng/mL)'. As for the experimental part:
1. Coat 200 ng/well of IL-31RA on an immunoplate and incubate the plate at 4° C. overnight. [0257] 2. Wash the plate 3 times with phosphate buffered saline (PBS) containing 0.05% Tween 20 (PBST). […] 3. Block the plate with 0.5% bovine serum albumin (BSA) in PBS for 45-60 min at room temperature. [0259] 4. Wash the plate 3 times with PBST. [0260] 5. Three-fold dilute the caninized antibody in each column or row of dilution plate starting at 0.3 μg/mL. [0261] 6. Transfer the diluted caninized antibody into each column or row of the immunoplate, and incubate the plate for 45-60 min at room temperature. [0262] 7. Wash the plate 3 times with PBST. [0263] 8. Add 1:4000 diluted horseradish peroxidase labeled anti-canine IgG Fc into each well of the plate, and then incubate the plate for 45-60 min at room temperature. [0264] 9. Wash the plate 3 times with PBST. [0265] 10. Add 3,3′,5,5′-tetramethylbenzidine (TMB) Substrate into each well of the plate, and incubate the plate for 10 to 15 min at room temperature to develop the color. [0266] 11. Add 100 μL 1.5 M phosphoric acid into each well to stop the reaction. Read plate at 450 nm with 540 nm reference wavelength.
As depicted in FIGS. 7A-7E, the caninized antibodies were tested for their reactivity to canine IL-31RA.

Experiment [2] has as its target T1, Canine IL-31RA ECD-10His. In words: BLI (Octet), biotin-labeled canine IL-31RA on SA biosensors. The method, then: (§1) All kinetics measurements were performed by Octet HTX using SA biosensors and Data Acquisition 12.0 software. A biotin-labeled antigen (canine IL-31RA) was loaded onto the pre-rehydrated SA biosensors for 120s at a concentration of 1 μg/mL. Next, the biosensors were placed into Octet Kinetics Buffer (PBS+0.02% Tween 20, 0.1% BSA) for the blocking phase for 120s. Then, for the association phase, antigen loaded biosensors were placed into 2-fold serial dilutions from 100 nM down to 3.13 nM of anti-IL-31RA monoclonal antibody in Octet Kinetics Buffer for 300s. The last well was buffer alone and that sensor was used for reference sensor subtraction. Finally, the biosensors were placed into Octet Kinetics Buffer for the dissociation phase for 300s. Analysis was performed using Data Analysis 12.0 software and curves were fitted using a 1:1 binding model.
Two of the top blocking antibodies: 51F8 and 218D9, had KDs of about 0.2 nM and about 0.07 nM respectively (see, Table 5B below).

For experiment [3], the target named is T1, Canine IL-31RA ECD-10His. Nature of the experiment: BLI (Octet HTX), biotin-labeled canine IL-31RA on SA biosensors, 1:1 fit. The method, then:
These constants reflect the binding affinity of the individual monoclonal antibodies for canine IL-31 RA.
as §1

B1: c100H8VH7VL4 (antibody, V domains shown)
VH: EVQLVQSGAEVKKPGASVKVSCKASGYTFTDYNMDWVRQAPGAGLDWIGHINPNNGGILYNQKFKGKATLTADTSTSTAYMELSSLRAGDIAVYYCARWAPLVRQPYWYFDVWGQGTLVTVSS
VL: DIVMTQTPLSLSVSPGETASISCKASQDINSYLNWFRQKPGQSPQLLIYRADRLVDGVPDRFSGSGSGTDFTLRISTVEADDTGVYYCLQYDEFPLTFGAGTKVELKR
notes: Caninized antibody; chains tied by name to c100H8VH7-cIgGBm and c100H8VL4-cCK; also called c100H8VH7L4
With B1, in experiment [1], a half-maximal response (EC50) required 0.581 ng/mL.

B2: c51F8VH3VL6 (antibody, V domains shown)
VH: EVQLVQSGAEVKKPGASVKVSCTASGFNIKNTFIHWVRQAPGAGLDWIGRIDPANGNTKYAPKFQGRATLTADTSTNTAYMQLSSLRAGDIAVYYCARYYYVSSYFDVWGQGTLVTVSS
VL: DIVMTQTPLSLSVSPGETASISCKASQSVTNDVTWFRQKPGQSPQLLIYSASNRYTGVPDRFSGSGSGTDFTLRISTVEADDTGVYYCQQDYSSPWTFGQGTKLEIKR
notes: Caninized antibody; chains tied by name to c51F8VH3-cIgGBm and c51F8VL6-cCK; also called c51F8VH3L6
Molecule B2 showed an EC50 in experiment [1] of 16.9 ng/mL. Besides, in experiment [2], the Kd amounted to 2670 pM, the koff is 0.00114 s⁻¹ and the kon amounted to 428000 M⁻¹ s⁻¹.

B3: c51F8VH3VL7 (antibody, V domains shown)
VH: EVQLVQSGAEVKKPGASVKVSCTASGFNIKNTFIHWVRQAPGAGLDWIGRIDPANGNTKYAPKFQGRATLTADTSTNTAYMQLSSLRAGDIAVYYCARYYYVSSYFDVWGQGTLVTVSS
VL: DIVMTQTPLSLSVSPGETASISCKASQSVTNDVTWFRQKPGQSPKLLIYSASNRYTGVPDRFSGSGSGTDFTLRISTVEADDTGVYYCQQDYSSPWTFGQGTKLEIKR
notes: Caninized antibody; chains tied by name to c51F8VH3-cIgGBm and c51F8VL7-cCK; also called c51F8VH3L7
In experiment [1], B3 gave an EC50 of 25 ng/mL. In experiment [2], this molecule had a Kd of 3990 pM, a koff of 0.0016 s⁻¹ and a kon of 401000 M⁻¹ s⁻¹.

B4: Chimeric 100H8 (antibody, V domains shown)
VH: EVQLQQSGPELVKPGASVKIPCKASGYTFTDYNMDWVKQSHGKSLEWIGHINPNNGGILYNQKFKGKATLTVDRSSNTAYMELRSLTSEDTAVYFCARWAPLVRQPYWYFDVWGTGTTVTVSS
VL: DIKMTQSPSSIFASLGERVTITCKASQDINSYLNWFQQKPGKSPKTLIYRADRLVDGVPSRFSGSGSGQDYSLTISSLEYEDMGIYYCLQYDEFPLTFGAGTKLELN
notes: also called murine-canine chimeric 100H8
B4 returned an EC50 in experiment [1] of 2.02 ng/mL.

B5: 100H8 (antibody, V domains shown)
VH: EVQLQQSGPELVKPGASVKIPCKASGYTFTDYNMDWVKQSHGKSLEWIGHINPNNGGILYNQKFKGKATLTVDRSSNTAYMELRSLTSEDTAVYFCARWAPLVRQPYWYFDVWGTGTTVTVSS
VL: DIKMTQSPSSIFASLGERVTITCKASQDINSYLNWFQQKPGKSPKTLIYRADRLVDGVPSRFSGSGSGQDYSLTISSLEYEDMGIYYCLQYDEFPLTFGAGTKLELN
notes: Mouse monoclonal antibody from a hybridoma; also called mouse mAb 100H8
In experiment [3], B5 returned a dissociation constant Kd of 152 pM, a koff of 0.00012 s⁻¹ and a kon of 788000 M⁻¹ s⁻¹.

B6: 222E7 (antibody, V domains shown)
VH: EVQLQQSGPELVKPGSSVKIPCKASGYTFTDYNMDWVKQSHGKSLEWIGHINPNIGGTLYNQKFKGKATLSVDKSSSTAYMELRSLTSEDTAVYYCARWAQLQRQPYWYFDVWGPGTTVTVSS
VL: DIKMTQSPSSMYASLGERVTITCKASQDINSYLNWFQQKPGKSPKTLIYRVNRLVDGVPSRFSGSGSGQDYSLTISSLEYEDMGIYYCLQYDEFPLTFGAGTKLELK
notes: Mouse monoclonal antibody from a hybridoma; also called mouse mAb 222E7
Turning to B6, in experiment [3], the Kd is 174 pM, the koff is 0.000282 s⁻¹ and the kon came out at 1.62e+06 M⁻¹ s⁻¹.

B7: 74H10 (antibody, V domains shown)
VH: EVQLQQSGPELVKPGASMKIPCKTSGYTFTDYNMDWVKQSHGKSLEWIGHINPNNGGTLYNQKFKDKATLTVDRSSNTAYMELRSLTSEDTAVYYCARWAPLLRQPYWYFDVWGTGTTVTVSS
VL: DIKMTQSPSSMYASLGERVTITCKASQDINSYLNWFQQKPGKSPKTLIYRADRLVDGVPSRFSGSGSGQDYSLTISSLEYEDMGIYYCLQYDEFPLTFGDGTKLELN
notes: Mouse monoclonal antibody from a hybridoma; also called mouse mAb 74H10
Take B7: in experiment [3], the Kd came out at 196 pM, the koff is 9.05e-05 s⁻¹ and the kon was found to be 463000 M⁻¹ s⁻¹.

B8: 55B3 (antibody, V domains shown)
VH: EVQLQQSGPELVKPGASVKIPCKASGYTFTDYNMDWVKQSHGKSLEWIGHINPNTGGTIYNQKFKGKATLTVDKSSSTAYMDLRSLTSEDTAVYYCARWAQLLRQPYWYFDVWGTGTTVTVSS
VL: DIKMTQSPSSMYASLGERVTITCKASQDINSYFNWVQQKPGKSPKTLIFRANRLVDGVPSRFSGSGSGQDYSLTINSLEYEDMGIYYCLQYDEFPLTFGAGTKLELK
notes: Mouse monoclonal antibody from a hybridoma; also called mouse mAb 55B3
In experiment [3], B8 gave a Kd of 272 pM, a koff of 0.000154 s⁻¹ and a kon of 568000 M⁻¹ s⁻¹.

B9: 51F8 (antibody, V domains shown)
VH: EVQLQQSVAELVRPGASVKLSCTASGFNIKNTFIHWVKQRPEQGLEWIGRIDPANGNTKYAPKFQGRATLTADTSSNTAYLQLSSLTSEDTAIYYCARYYYVSSYFDVWGTGTTVTVSS
VL: SIVMTQTPKFLLVSAGDRVTITCKASQSVTNDVTWYQQKPGQSPKLLIFSASNRYTGVPDRFTGSGYGTDFTFTISTVQAEDLAVYFCQQDYSSPWTFGGGTKLEIK
notes: Mouse monoclonal antibody from a hybridoma; also called mouse mAb 51F8
In experiment [3], B9 came in with an equilibrium dissociation constant (Kd) of 207 pM, a koff of 0.000141 s⁻¹ and a kon of 684000 M⁻¹ s⁻¹.

B10: Chimeric 51F8 (antibody, V domains shown)
VH: EVQLQQSVAELVRPGASVKLSCTASGFNIKNTFIHWVKQRPEQGLEWIGRIDPANGNTKYAPKFQGRATLTADTSSNTAYLQLSSLTSEDTAIYYCARYYYVSSYFDVWGTGTTVTVSS
VL: SIVMTQTPKFLLVSAGDRVTITCKASQSVTNDVTWYQQKPGQSPKLLIFSASNRYTGVPDRFTGSGYGTDFTFTISTVQAEDLAVYFCQQDYSSPWTFGGGTKLEIK
notes: canine constant regions not specified; also called murine-canine chimeric 51F8
With B10, in experiment [1], the response was half-maximal at 3.42 ng/mL (EC50). In experiment [2], this molecule came in with a Kd of 207 pM, a koff of 0.000141 s⁻¹ and a kon of 684000 M⁻¹ s⁻¹.

B11: Chimeric 224G3 (antibody, V domains shown)
VH: EVQLVESGGDLVKPGGSLKLSCAASGFTFSSYGMSWVRQTPDKRLEWVATISNGGSYTYYPDSVKGRFTISRDNAKNTLYMQMSSLKSEDTAMYYCARNEPPDYWGQGTSVTVSS
VL: QIVLTQSPAIMSASLGERVTMTCTASSSVGSSYLHWYQQKPGSSPKLWIYDTSNLASGVPVRFSGSGSGTSYSLTISSMEAEDAATYYCHQYHRSPYTFGGGTKLEIK
notes: canine constant regions not specified; also called m224G3 Chim
Take B11: a half-maximal effect in experiment [1] (EC50) was put at 0.383 ng/mL.

B12: Chimeric 85C10 (antibody, V domains shown)
VH: EFQLQQSGPELVKPGASVKISCKASGYSFTDYSINWVKQSNGKSLEWIGVINPNYGTSSHNQKFKGKATMTVDQSSSTAYMQLNSLTSEDSAVYYCARALDDYYFYWYFDVWGIGTTVTVSS
VL: DVVMTQTPLSLPVSLGDQASISCRSSQSLVHTNGNTYLHWYLQKPGQSPKLLIYKVSNRFSGVPDRFSGSGSGTDFTLKISRVEAEDLGVYFCSQTTHVPLTFGAGTKLELK
notes: canine constant regions not specified; also called murine-canine chimeric 85C10
Consider B12, for which the concentration for a half-maximal effect (EC50) in experiment [1] turned out to be 2.58 ng/mL.

B13: 65G9 (antibody, V domains shown)
VH: EFQLQQSGPELVKPGASVKISCKASGYSFTDYGMNWLKQINGKSLEWIAIINPNYGTASSNPKFKDKATLTVDHSSSTAYMQLSSLTSEDSAVYYCARAFDGYYFYWYFDVWGTGTTVTVSS
VL: DVVMTQTPLSLPVSLGDQASISCRSSQSLIHTNGNTYLHWYLQKPGQSPKLLIYKVSNRFSGVPDRFSGSGSGTDFTLKISRLEAEDLGVYFCSQSTHVPLTFGAGTKLELR
notes: Mouse monoclonal antibody from a hybridoma; also called mouse mAb 65G9
As to B13, in experiment [3], the Kd came to 451 pM, the off-rate constant (koff) came out at 0.000355 s⁻¹ and the kon came to 787000 M⁻¹ s⁻¹.

By EC50 is commonly meant the concentration giving half of the maximal effect. Read a high EC50 as weaker potency. What is called Kd is the free concentration of one partner at which half of the binding sites on the other are occupied at equilibrium, for simple one-to-one binding. Low readings indicate a tighter complex, high ones a looser complex. The term koff denotes the first-order rate constant of dissociation. A higher koff goes with a short-lived complex. As usually defined, the kon is the second-order rate constant of association. A high value points to fast association.
